Experimental data: patent US20170174789A1 (Regeneron, published 2017)

T1: mAng3 (mouse, UniProt Q9WVH6 22-509, limits assumed)
T1 construct: Bought protein; also called angiopoietin 3
T1 sequence (looked up): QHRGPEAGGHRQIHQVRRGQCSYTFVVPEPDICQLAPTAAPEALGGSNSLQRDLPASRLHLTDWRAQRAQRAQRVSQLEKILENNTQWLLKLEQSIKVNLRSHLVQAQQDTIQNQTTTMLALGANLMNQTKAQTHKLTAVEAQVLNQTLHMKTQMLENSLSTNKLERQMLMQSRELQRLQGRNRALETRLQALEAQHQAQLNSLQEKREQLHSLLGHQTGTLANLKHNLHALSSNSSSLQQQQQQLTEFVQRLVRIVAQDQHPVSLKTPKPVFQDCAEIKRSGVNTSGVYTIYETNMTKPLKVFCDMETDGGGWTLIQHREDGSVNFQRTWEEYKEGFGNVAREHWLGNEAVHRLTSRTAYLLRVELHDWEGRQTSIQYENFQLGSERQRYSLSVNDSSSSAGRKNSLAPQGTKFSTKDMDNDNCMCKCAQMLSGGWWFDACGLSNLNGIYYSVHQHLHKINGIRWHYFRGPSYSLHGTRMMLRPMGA

T2: hAng2 (human, UniProt O15123 19-496, limits assumed)
T2 construct: Bought protein; also called angiopoietin 2
T2 sequence (looked up): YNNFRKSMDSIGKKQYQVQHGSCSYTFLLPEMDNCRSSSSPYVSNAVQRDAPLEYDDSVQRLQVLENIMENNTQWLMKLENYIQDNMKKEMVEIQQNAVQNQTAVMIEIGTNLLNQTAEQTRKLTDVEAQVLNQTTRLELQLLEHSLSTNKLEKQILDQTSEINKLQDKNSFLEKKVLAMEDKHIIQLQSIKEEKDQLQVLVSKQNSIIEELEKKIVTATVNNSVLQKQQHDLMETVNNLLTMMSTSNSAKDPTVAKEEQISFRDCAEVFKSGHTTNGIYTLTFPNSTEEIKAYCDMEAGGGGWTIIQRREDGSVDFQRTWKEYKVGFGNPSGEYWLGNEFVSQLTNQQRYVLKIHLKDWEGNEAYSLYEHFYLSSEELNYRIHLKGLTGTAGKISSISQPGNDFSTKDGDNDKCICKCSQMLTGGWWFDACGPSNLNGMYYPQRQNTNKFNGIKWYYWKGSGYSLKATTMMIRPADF

T3: hAng4 (human, UniProt Q9Y264 25-503, limits assumed)
T3 construct: Bought protein; also called angiopoietin 4
T3 sequence (looked up): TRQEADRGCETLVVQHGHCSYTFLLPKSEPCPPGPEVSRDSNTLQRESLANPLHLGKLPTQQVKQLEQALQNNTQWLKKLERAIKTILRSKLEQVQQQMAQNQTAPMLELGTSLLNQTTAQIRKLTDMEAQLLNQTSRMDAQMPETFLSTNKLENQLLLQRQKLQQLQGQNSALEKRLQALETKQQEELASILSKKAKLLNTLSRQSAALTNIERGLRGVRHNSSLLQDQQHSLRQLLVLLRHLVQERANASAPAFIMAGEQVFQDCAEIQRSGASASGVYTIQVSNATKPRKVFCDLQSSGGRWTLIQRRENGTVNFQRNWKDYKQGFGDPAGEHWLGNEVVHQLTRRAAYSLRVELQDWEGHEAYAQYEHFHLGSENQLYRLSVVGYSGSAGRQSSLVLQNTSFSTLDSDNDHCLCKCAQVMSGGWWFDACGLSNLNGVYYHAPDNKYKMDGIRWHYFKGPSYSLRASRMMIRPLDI


Key:
rTie2-hFc = target: T4, rTie2-hFc (rat); assay: SPR Biacore 25C, mAb captured
T4 construct: also called rat Tie2
T4 sequence (chain, as listed by the source limits assumed): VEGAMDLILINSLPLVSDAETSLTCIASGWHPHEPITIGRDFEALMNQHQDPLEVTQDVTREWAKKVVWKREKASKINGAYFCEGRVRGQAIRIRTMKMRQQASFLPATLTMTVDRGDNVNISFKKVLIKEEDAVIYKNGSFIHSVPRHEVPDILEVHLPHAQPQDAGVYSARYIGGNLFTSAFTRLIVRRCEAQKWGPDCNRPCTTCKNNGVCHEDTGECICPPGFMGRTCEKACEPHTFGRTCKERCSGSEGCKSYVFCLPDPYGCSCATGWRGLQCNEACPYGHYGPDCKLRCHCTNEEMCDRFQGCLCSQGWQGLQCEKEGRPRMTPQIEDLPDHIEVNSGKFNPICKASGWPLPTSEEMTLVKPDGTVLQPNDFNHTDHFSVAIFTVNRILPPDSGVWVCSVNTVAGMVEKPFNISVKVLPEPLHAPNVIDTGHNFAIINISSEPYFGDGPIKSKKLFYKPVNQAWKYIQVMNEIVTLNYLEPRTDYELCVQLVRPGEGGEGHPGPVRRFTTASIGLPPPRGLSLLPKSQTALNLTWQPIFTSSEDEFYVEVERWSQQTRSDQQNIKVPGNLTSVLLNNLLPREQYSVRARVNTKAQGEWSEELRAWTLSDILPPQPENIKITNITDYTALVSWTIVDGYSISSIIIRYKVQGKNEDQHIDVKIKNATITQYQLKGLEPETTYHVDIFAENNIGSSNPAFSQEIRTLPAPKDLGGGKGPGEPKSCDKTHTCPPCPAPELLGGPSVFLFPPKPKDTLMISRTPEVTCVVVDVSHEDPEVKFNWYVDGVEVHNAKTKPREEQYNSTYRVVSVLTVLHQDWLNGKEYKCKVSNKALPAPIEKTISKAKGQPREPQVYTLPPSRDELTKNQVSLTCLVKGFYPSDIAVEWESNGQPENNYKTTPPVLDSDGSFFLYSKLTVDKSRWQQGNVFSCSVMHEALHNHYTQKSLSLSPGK
Experimental: (§1) (Tables 3-6). Measurements were conducted on a Biacore 2000 or T200 instrument.
(§2) For antibodies with a mouse constant region (designated H1M or H2M), antibodies were immobilized onto an anti-mouse Fc sensor surface and different concentrations of human, mouse or rat Tie2 constructs (hTie2-His, mTie2-hFc and rTie2-hFc) were injected over the antibody captured surface. For antibodies in the human IgG format (designated H1H or H4H), either an anti-human Fc sensor surface (hTie2-His and hTie2-mFc) or anti-human Fab sensor surface (mTie2-hFc and rTie2-hFc) was employed depending on the Tie-2 construct applied to the antibody captured surface. Amino acid sequences of the constructs used in this Example are as follows: hTie2-His (SEQ ID NO:2); hTie2-hFc (SEQ ID NO:3); hTie2-mFc (SEQ ID NO:4); rTie2-hFc (SEQ ID NO:5); and mTie2-hFc (SEQ ID NO:6).
(§3) Kinetic rate constants—association rate (ka) and dissociation rate (kd) were determined by fitting the real time binding sensorgrams to a 1:1 binding model with mass transport limitation using Scrubber 2.0 curve fitting software. The equilibrium dissociation constant (KD) and dissociative half-life (T½) were calculated from the kinetic rate constants as: KD (M)=kd/ka; and T½ (min)=(In2/(60*kd).).

mTie2-hFc = target: T5, mTie2-hFc (mouse); assay: SPR Biacore 25C, mAb captured
T5 construct: also called mouse Tie2
Experimental: as §1, §2, §3

[1] = target: hTie2 on 293-Tie2/SRE-Luc cells (human, UniProt Q02763 23-1124); assay: cell-based or functional assay
hTie2 (EGF) = target: T6, hTie2 (EGF) (human, UniProt Q02763 210-344); assay: Luminex bead binding
T6 construct: Domain-deletion construct linked to Luminex beads
T6 sequence (Q02763 other isoform, or with tags, fused parts or gaps limits assumed): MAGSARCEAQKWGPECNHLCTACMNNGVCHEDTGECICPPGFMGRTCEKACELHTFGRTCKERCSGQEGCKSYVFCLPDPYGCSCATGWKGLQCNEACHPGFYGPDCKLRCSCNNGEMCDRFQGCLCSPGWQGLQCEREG
Experimental: (§4) For binding, 25 μl of anti-Tie2 antibody (25 μg/ml) was added to 75 μl of the above created Luminex bead mixture (3×10³ beads per construct) in binding buffer (PBS, 0.05% Tween 20, 1 mg/ml BSA, 0.05% sodium azide) into a 96 well filter plate (Millipore). Incubation was at room temperature (RT) for 90 min or overnight at 4° C. with shaking. The beads were washed 3× with washing buffer (PBS+0.05% Tween 20) resuspended in 100 μl binding buffer containing PE (phycoerythrine)-labeled anti human kappa or PE-labeled anti mouse Fab secondary antibody and incubated at RT for 45 min with shaking. Samples were washed 2× more and binding signal (MFI) for each bead was determined using a Luminex L200 or FLEXMAP3D instrument. Bead linked human Tie2 was used as positive control and bead linked human Tie1 was used to measure family cross-reactivity. In general MFI signals greater than 500 units represent significant binding.

hTie2 (Ig2-EGF) = target: T7, hTie2 (Ig2-EGF) (human, UniProt Q02763 121-344); assay: Luminex bead binding
T7 construct: Domain-deletion construct linked to Luminex beads
T7 sequence (Q02763 other isoform, or with tags, fused parts or gaps limits assumed): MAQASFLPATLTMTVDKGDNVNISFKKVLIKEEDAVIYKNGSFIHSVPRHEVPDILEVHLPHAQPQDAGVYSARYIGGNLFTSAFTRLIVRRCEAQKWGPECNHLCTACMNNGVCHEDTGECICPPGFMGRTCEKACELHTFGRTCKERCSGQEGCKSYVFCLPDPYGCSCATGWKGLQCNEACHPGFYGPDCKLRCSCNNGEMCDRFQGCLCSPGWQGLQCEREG
Experimental: as §4

hTie2 (Ig1-Ig2-EGF) = target: T8, hTie2 (Ig1-Ig2-EGF) (human, UniProt Q02763 24-344); assay: Luminex bead binding
T8 construct: Domain-deletion construct; also used for H/D exchange
Experimental: as §4

mAng3 = target: T1, mAng3; assay: Octet Red biosensor, hTie2.mFc captured on anti-mFc tips, 100 nM angiopoietin for 5 min; some tips first saturated with 300 nM H4H2055N or Control I
Experimental: (§5) A further set of experiments was conducted to evaluate the ability of H4H2055N to block Tie2 binding to Ang2 and other members of the angiopoietin family (Ang1, Ang3 and Ang4). In this set of experiments, an Octet Red biosensor was employed using two experimental formats. In the first format, hTie2.mFc (SEQ ID NO:4; 10 μg/ml) or a negative control was captured on anti-mFc Octet sensor tips for 5 min. The captured sensor tip surfaces were then saturated with H4H2055N or Control I antibody by dipping into wells containing 300 nM of respective monoclonal antibodies for 10 min. Finally the sensor tips were placed into wells containing 100 nM of hAng1 (R&D Systems, Inc., Minneapolis, Minn., Cat 923-AN/CF; Accession #Q5HYA0), hAng2 (R&D Systems, Inc., Minneapolis, Minn., Cat 623-AN/CF; Accession #015123), mAng3 (R&D Systems, Inc., Minneapolis, Minn., Cat 738-AN/CF; Accession #Q9WVH6) or hAng4 (R&D Systems, Inc., Minneapolis, Minn., Cat 964-AN/CF; Accession Q9Y264) for 5 min. Binding response at each step of the experiment was monitored and the binding of different angiopoietins to the monoclonal antibody saturated receptor surfaces was plotted (FIG. 2). As illustrated by FIG. 2, H4H2055N blocked the binding of all four angiopoietins to the hTie2.mFc surface.

hAng2 = target: T2, hAng2; assay: as above
Experimental: as §5

hAng4 = target: T3, hAng4; assay: as above
Experimental: as §5

Kd (rTie2-hFc) [nM] | T½ (rTie2-hFc) [min] | koff (rTie2-hFc) [s⁻¹] | kon (rTie2-hFc) [M⁻¹ s⁻¹] | Kd (mTie2-hFc) [nM] | T½ (mTie2-hFc) [min] | koff (mTie2-hFc) [s⁻¹] | kon (mTie2-hFc) [M⁻¹ s⁻¹] | EC50, Tie2 dependent luciferase activity, 293-Tie2/SRE-Luc cells with 1 nM BowAng1 [1] [nM] | EC50, Tie2 dependent luciferase activity, 293-Tie2/SRE-Luc cells with 1 nM BowAng2 [1] [nM] | binding result (mAng3) | binding result (hAng2) | binding result (hAng4) | Binder | binding result (hTie2 (EGF)) | binding result (hTie2 (Ig2-EGF)) | binding result (hTie2 (Ig1-Ig2-EGF))
55.3 | 2 | 0.00618 | 112000 | 107 | 2 | 0.00576 | 53900 | 2.5 | 3.7 | – | – | – | H1H2332B (antibody, V domains shown, Tested as H1H2332B (human IgG format, H1H prefix)) VH: QVQLQESGPGLVKPSETLSLTCTVSGASISSYYWTWFRQPPGQGLEWIGYIYYSGSTNYNPSLKSRVTISVDTSMNQFSLKLTSVTAADTAVYYCARQGGYTSSLFDYWGQGTLVTVSS VL: DIQMTQSPSSLSASVGDRVTITCRASQSISSYLNWYQQKPGKAPKLLIYVVSSLQSGVPSRFSGSGSGTDFTLTISSLQPEDFATYYCQQSYSIPWTFGQGTKVEIK | no binding (tested: MFI >500 = significant binding) | no binding (tested: MFI >500 = significant binding) | no binding (tested: MFI >500 = significant binding)
– | – | – | – | – | – | – | – | – | – | binds | binds | binds | hTie2-mFc (Fc fusion) AMDLILINSLPLVSDAETSLTCIASGWRPHEPITIGRDFEALMNQHQDPLEVTQDVTREWAKKVVWKREKASKINGAYFCEGRVRGEAIRIRTMKMRQQASFLPATLTMTVDKGDNVNISFKKVLIKEEDAVIYKNGSFIHSVPRHEVPDILEVHLPHAQPQDAGVYSARYIGGNLFTSAFTRLIVRRCEAQKWGPECNHLCTACMNNGVCHEDTGECICPPGFMGRTCEKACELHTFGRTCKERCSGQEGCKSYVFCLPDPYGCSCATGWKGLQCNEACHPGFYGPDCKLRCSCNNGEMCDRFQGCLCSPGWQGLQCEREGIPRMTPKIVDLPDHIEVNSGKFNPICKASGWPLPTNEEMTLVKPDGTVLHPKDFNHTDHFSVAIFTIHRILPPDSGVWVCSVNTVAGMVEKPFNISVKVLPKPLNAPNVIDTGHNFAVINISSEPYFGDGPIKSKKLLYKPVNHYEAWQHIQVTNEIVTLNYLEPRTEYELCVQLVRRGEGGEGHPGPVRRFTTASIGLPPPRGLNLLPKSQTTLNLTWQPIFPSSEDDFYVEVERRSVQKSDQQNIKVPGNLTSVLLNNLHPREQYVVRARVNTKAQGEWSEDLTAWTLSDILPPQPENIKISNITHSSAVISWTILDGYSISSITIRYKVQGKNEDQHVDVKIKNATIIQYQLKGLEPETAYQVDIFAENNIGSSNPAFSHELVTLPESQAPADLGGGKGPGEPRGPTIKPCPPCKCPAPNLLGGPSVFIFPPKIKDVLMISLSPIVTCVVVDVSEDDPDVQISWFVNNVEVHTAQTQTHREDYNSTLRVVSALPIQHQDWMSGKEFKCKVNNKDLPAPIERTISKPKGSVRAPQVYVLPPPEEEMTKKQVTLTCMVTDFMPEDIYVEWTNNGKTELNYKNTEPVLDSDGSYFMYSKLRVEKKNWVERNSYSCSVVHEGLHNHHTTKSFSRTPGK | – | – | –
